Data: patent US20190352664A1, “COMPOSITIONS AND METHODS FOR CONTROLLING GENE EXPRESSION” (priority 2017, published 2019)

B1: AT2G35510.1_1: uORF of AT2G35510.1; peptide SEQ ID NO: 11 (nucleic acid)
DNA: ATGGCTCGTCTTTTTCCAAACGATTTCTTCTTCTTCGTCGTCGCCGGTTTAGGGTTTCCGTTGCTGTAG
modifications: listed as DNA, chemistry not fully specified
B2: AT1G16700.1: 5′ UTR of transcript; Alpha-helical ferredoxin (nucleic acid)
DNA: AAATTAAGAGACATCTGATCGAATTTTGTTCCGACGACCGTGAATCACCAGCAAAGGATTCGTGTCAATGTTCTTGTGAGATCGAACTTTCTCTGGGTTCGTGCAGAAGCTTTGCTTTTTTGAGTATCGCGTTTAAGGCACATCGAAGAAGAGAGACCCTAATTTGATATTTTGAGTTCTATCG
B3: AT4G11110.1: 5′ UTR of transcript; SPA1-related 2 (nucleic acid)
DNA: CTTACTTAAACACAGTCAAATTCATTTTCTGCCTTAGAAAAGATTTTTATCGAAAATCGACGTTTTTGAAAAAACTCAAATTATCGTCGTTTTGTTCTCAGATTTCTTCTGCTCTCTTCTTCTTCTCCTTCTTCTTCGTTCCACCGCCTCTGTTGCTTTATCTTCTTCTTCCTTCCTTCGATTGTTGATTACGTCGGTGGATCTTTGTTCTCCTCTGTGTTGTTTTCATTGCTAGATTTCGTCAATGATTGGCTTCTCACGATTCGATTTTTCCGGCTCCTGTTCTTAATTTCCTCTGAGAGA
B4: AT4G18570.1: 5′ UTR of transcript; Tetratricopeptide repeat (TPR)-like superfamily protein (nucleic acid)
DNA: ATTTTTATTACTCTCTCAAGTAGTCTCATCTTCTTCTTAATCCAAAGGCCCAAACTTTGAATCATCACTATCACTCTCTCTCTCTCTCTCTATCTCTCAAGAACTGCACGGACAACGACATGCTTTTAATTTCCATGCAAATCTCTCCTTTCTTCTCAAGTCATTTTTGAAAATCAATCAAAAAACTGAAACTTGGTGGAGCTTTTATCATTCACTCATCA
B5: AT2G35510.1: 5′ UTR of transcript; similar to RCD one 1 (nucleic acid)
DNA: CAAGAGTAGACCGCCGACTTAGATTTTTTCGCCGACGAGAGAATATATATAAATGGCTCGTCTTTTTCCAAACGATTTCTTCTTCTTCGTCGTCGCCGGTTTAGGGTTTCCGTTGCTGTAGCAATTTTCTCTCGCTTCTCTCTCCCCTTTTACAGTTTCTCTTATATTGCTCTTGCCTTGCGTCCAATCTCAAGAGTTCATAAGAGTTGACATTTGTGAACATCGAAGAAATACGGTGACGTTTCTTCTCTGATTACTTTTTGCCAACATGAATACTAATGTATTTATCAACAAGTGCTACAGCCTGTTTTTTTCGAAGCTGTTGGTGAGTTCCCATCCTTAGTACTGCTAGACAGTTCGGTGTGTTAGTTGACTTTATATTCAAGGTTATAGGTTTAGTGTTGTTAGTAGAGAAAA
B6: AT2G42950.1: 5′ UTR of transcript; Magnesium transporter CorA-like family protein (nucleic acid)
DNA: ACATTCATCTCTCTCTCTCAGTCAAATTGTTGTTTTCTTTCTTCGAATCGGTGCAGAAAATTCAGGGAAGTTCTGGGGAAGGTTGTTGCGTTTGACTCCTTTGGCTTAGTTTTCTTTCGAATTCCGTGCTTCCTGATGATCTTACGTGAAATTGCAGCCTAAAATTTCGAGATTGTTTTTTTTACTCAGAAAACGAGATTTGACTGATATGAATCGAAAATCTGTGATTTAAAGTGAAGC
B7: AT3G63340.1: 5′ UTR of transcript; Protein phosphatase 2C family protein (nucleic acid)
DNA: TCTTCTTCTTCGTTTTCAGGCGGGTGGAGGAGCTCAGAGCCTTCCAGAGGTAACCAACCTTTTATTACCGACAAGATTCTGCCACACAATTATTACATATTTTTGTTCCCATGAAGCAATTGTTCCTTTCAAGCATGTTTACGAGCAAAAGAGTGAAAGGGTAGCTTGATTTTTGTCTACTCTAGCTTCATTTTCTGGCGATCTTTACTTGAGATTTAAACATTTTGCTCTCGGATTGATAATAAAGAAGAATTTGGAATATCAGTAGGTTTGGTTAGGACTCTCGGATTCTGTTGTCGGTTAGATATTTGTTTTGTTTAATCCCTAGATTTAGCAGAGAAATCCCTCAAATCTCACACAATCCATGTAAGGAAGAAG
B8: AT3G15030.1: 5′ UTR of transcript; TCP family transcription factor 4 (nucleic acid)
DNA: AGATTTTTTTTTTAAACAAAGAATGGAAAAAAATGAATAAATTTGGGAAACGAGGAAGCTTTGGTTACCCAAAAAAGAAAGAAAGAAAAAATAAAAAAAAATAAAAAGAAAAGCTTTCTCTGGGTTTTTCTTGATTGGTCAATTACACATCTCCCTTTCTCTCTTCTCTCTCTCACCTTCGCTTGCTTTGCTTGCTTCATCTCTTTGGTCTCCTTCTTGCGTTTTCTATTTACTACACAGACCAAACAATAGAGAGAGACTTTAAGCTATAGAAAAAAAGAGAGAGATTCTCTCAAATATGGGTTAGTCCACAATTTTCACTAAACCTCTTCTTCTTAGGATTGTTTTTAGGGTTAGGGTTTTGAGGTGAGGAGAGCAAGTATGCGGGAGTTTCATCCTTTTTGAGTTACTCTGGATTCCTCACCCTCTAACGACGACCACCGTCGCCGCCGCCGCCGCCGTCTCGACGAATATGCTCTACCA
B9: AT3G55020.1: 5′ UTR of transcript; Ypt/Rab-GAP domain of gyp1p superfamily protein (nucleic acid)
DNA: GTCACACATGTAATAAACCTTGGTCGACAATCTCGCCCTTTCCATGTGATTTCTCCACTTCCTCTCTCTCTCTACTGCAACTTCCTCCTCCTGCTTCAACTTCATTCGGGTAATGATGAACTAGCGTAGAGATTTGGATCTTCTTCTTCGTCCTCTCACCAACTCTTCACCGGTTAGATCTCTTTTTCACGCTAACGA
B10: AT2G47210.1: 5′ UTR of transcript; myb-like transcription factor family protein (nucleic acid)
DNA: AAACTGCTGACCGATCCCAAAGGTTGAAAGATTCTTTGGCGCTAAAAAATCCCCAGTTCCCAAATCGGCGTCCTCGTTTGAAACCCTAATTCCTGAATCGAAGCAGATCCTGATCGAATCGAAGGTGTTCGAATGATAGCTACCCAGTAAATTCAGAACCCTAATTAACA
B11: AT3G18140.1: 5′ UTR of transcript; Transducin/WD40 repeat-like superfamily protein (nucleic acid)
DNA: ATGAGAAAAGCTTGGTAAAAACCCTATTTTTCTTCTTCTCTTCAATTTACAGTTCTCTGCACCTTTTTCTTTCCCCTGTTTTTTGATCCTCAATCACCAAACCCTAGCTTGTTCTTCTGTTGATTATTTCGAAAAGGGGGTTTGTTTGTTTTCTGGGAATCAGCAAAAATCACGAAATGGTTGGTTTAATATTTCAATCGGGATAAAATCGATCGAAA
B12: AT4G17840.1: 5′ UTR of transcript (nucleic acid)
DNA: ATCAAAATCAATGATCAAGGTAACGTAGTCAAGTTCAATTACTCTTTGTCAAATTTAAGTGGTCTCTATTACTAAACTATACACAACCGTTAGATCAAATAATTCTCTACCATCCAACGGTCCAAAGTCTCCACTTCTATTTATTACAATAAAATGAGAAAATAAAAACGCGCGGTCACCGATTCTCTCTCGCTCTCTCTGTTACTAAATGAAGAAGAGAATCTCTCCGGCGAGATCACCGGCGTTATTCCGATAATTTCGCCTGAGAGTTGTCGCATGTTATAA
B13: AT3G03070.1: 5′ UTR of transcript; NADH-ubiquinone oxidoreductase-related (nucleic acid)
DNA: AAATAAATGCGTTGTTTGGTACAGCTTCACGAACAATCTCTCTCTCGATAGATTCTTCTTACCTCTGAATTTCTCGTTGTTGGAACA
modifications: listed as DNA, chemistry not fully specified
notes: 5′ UTR of transcript; NADH-ubiquinone oxidoreductase-related
B14: AT4G23740.1: 5′ UTR of transcript; Leucine-rich repeat protein kinase family protein (nucleic acid)
DNA: CTTTCACCCACTTTAATATGCCAAAAAATAAGAACAAAATTATATCCGTTGCTTGAAAATCACAAGCTCTTCTTAACTTCACAAGTGCTTCAATGGCGGTTCTTCACATTATCTTCACTGCGTAATTGAAGAAGTTGTTCTCTCTTCCTCTTAATTTCGAGTTGTGTTCTTAAAAAACTCCAGAGCTGATTCGATTCTCGAGAAGAAACTAAGCCGACAATAAAGTTCAGATCTGGAAAAAAGCGAGCTCCAGATTACAAAAAGAAACAGCTCGTTTTTTTCACTTTCAAAAAA
B15: AT3G56010.1: 5′ UTR of transcript (nucleic acid)
DNA: GTGTTTAGCTTCTTCACTACCACACAGAAACAGAGTTTCCGTCTTTCATCTTCCTCCATATGCGTCGCTCTTAAAAACCTAATTCACA
modifications: listed as DNA, chemistry not fully specified
notes: 5′ UTR of transcript

What follows are molecules tested on Arabidopsis (assay: Ribo-seq and RNA-seq global translatome profiling (translational efficiency TE, mORF/uORF ribo-shift) upon elf18 treatment). Conditions: shift of mORF/uORF ratio, elf18 vs Mock; per uORF.
Format: in vivo
Design: key to score (Ribo-shift): Up: ribo-shift up (i.e., increased mORF/uORF ratio); Down: ribo-shift down (i.e., decreased mORF/uORF ratio)
In the case of B1, the “score (Ribo-shift)” value is reported as “Up”.

Same assay, conditions: translational efficiency fold change, elf18 vs Mock; listed as shows 5′ UTR of the transcript
With B2 the “score (TE change)” value was “TEdown (389 genes displayed decreased TEfc (|z|≥1.5))”. For B3, the “score (TE change)” value was “TEup (448 had increased TEfc)”. For B4, the “score (TE change)” value was “TEdown (389 genes displayed decreased TEfc (|z|≥1.5))”. With B5 the “score (TE change)” value was “TEup (448 had increased TEfc)”. B6 was tested, and the “score (TE change)” value was “TEdown (389 genes displayed decreased TEfc (|z|≥1.5))”. B7 was tested, and the “score (TE change)” value was “TEdown (389 genes displayed decreased TEfc (|z|≥1.5))”. B8 was tested, and the “score (TE change)” value was “TEdown (389 genes displayed decreased TEfc (|z|≥1.5))”. In the case of B9, the “score (TE change)” value is reported as “TEup (448 had increased TEfc)”. With B10 the “score (TE change)” value was “TEdown (389 genes displayed decreased TEfc (|z|≥1.5))”. With B11 the “score (TE change)” value was “TEup (448 had increased TEfc)”. For B12, the “score (TE change)” value was “TEup (448 had increased TEfc)”. B13 was tested, and the “score (TE change)” value was “TEdown (389 genes displayed decreased TEfc (|z|≥1.5))”. For B14, the “score (TE change)” value was “TEup (448 had increased TEfc)”. For B15, the “score (TE change)” value was “TEup (448 had increased TEfc)”.
